Experimental data as given in patent publication US6569841B1, “Ion exchange tumor targeting (IETT)” (MAP Medical Technologies OY, priority 1998, dated 2003).

System: bladder tumor tissue (epidermal growth factor positive superficial transitional cell bladder carcinoma)
Experiment: Radioactive uptake in bladder tumor vs normal bladder tissue after instillation in the bladder of patients (ttn ratio)
Settings: 200 mL of 0.25 μg/mL in saline instilled in the bladder for 30 minutes, washed out, mean values
Method: Nine patients having epidermal growth factor positive superficial transitional cell bladder carcinoma were studied.
200 mL of the polymers, of the concentration 0.25 μg/mL in saline, were instilled through an urethral catether and kept in the bladder for 30 minutes and were then carefully washed out with approximately 400 mL saline. The patients were then operated on and samples were taken from normal bladder tissue and bladder tumor tissue, respectively. The samples were weighed and counted in gamma counter and the radioactive uptake was calculated as cpm/g tissue. The target to non-target (ttn) ratio was calculated.

Substance: Tc-99m-lysine dextran
- radioactive uptake, ttn (target to non-target ratio, tumor vs normal bladder tissue, cpm/g): highest target to non-target ratio
